From paper PMC4009770, “A Comparison of Two Single-Stranded DNA Binding Models by Mutational Analysis of APOBEC3G”

Tests used:
Test in all cases: EMSA; EMSA: 10 mM Tris-HCl pH 7.5, 50 mM NaCl, 0.5% NP-40, 4% glycerol, 1 mM MgCl2, 0.5 mM EDTA, 1 mM DTT, 20 min room temperature, 4 pmol oligo in 20 uL, gel at 4 C; NMR: 50 mM sodium phosphate pH 7.4, 1 mM DTT, 50 uM ZnCl2, 300 uM protein
A3G R215E = A3G R215E (human, UniProt Q9HC16 1-384, R215E); settings: protein: recombinant; tags: C-terminal Strep; label: 5' Alexa488; single strand
A3G R213E/R215E = A3G R213E/R215E (human, UniProt Q9HC16 1-384, R213E;R215E); settings: protein: recombinant; tags: C-terminal Strep; label: 5' Alexa488; single strand
A3G R313E/R320E = A3G R313E/R320E (human, UniProt Q9HC16 1-384, R313E;R320E); settings: protein: recombinant; tags: C-terminal Strep; label: 5' Alexa488; single strand
A3G R313E = A3G R313E (human, UniProt Q9HC16 1-384, R313E); settings: protein: recombinant; tags: C-terminal Strep; label: 5' Alexa488; single strand
A3G-S wild type = A3G-S wild type (human, UniProt Q9HC16 1-384); settings: protein: recombinant; tags: C-terminal Strep (STP cleaved by TEV); label: 5' Alexa488; single strand
A3G E67Q = A3G E67Q (human, UniProt Q9HC16 1-384, E67Q); settings: protein: recombinant; tags: C-terminal Strep; label: 5' Alexa488; single strand
A3G E259Q = A3G E259Q (human, UniProt Q9HC16 1-384, E259Q); settings: protein: recombinant; tags: C-terminal Strep; label: 5' Alexa488; single strand
A3G R374E/R376E = A3G R374E/R376E (human, UniProt Q9HC16 1-384, R374E;R376E); settings: protein: recombinant; tags: C-terminal Strep; label: 5' Alexa488; single strand

Measured: binding result

Chain of A3G R313E (Q9HC16 whole entry R313E): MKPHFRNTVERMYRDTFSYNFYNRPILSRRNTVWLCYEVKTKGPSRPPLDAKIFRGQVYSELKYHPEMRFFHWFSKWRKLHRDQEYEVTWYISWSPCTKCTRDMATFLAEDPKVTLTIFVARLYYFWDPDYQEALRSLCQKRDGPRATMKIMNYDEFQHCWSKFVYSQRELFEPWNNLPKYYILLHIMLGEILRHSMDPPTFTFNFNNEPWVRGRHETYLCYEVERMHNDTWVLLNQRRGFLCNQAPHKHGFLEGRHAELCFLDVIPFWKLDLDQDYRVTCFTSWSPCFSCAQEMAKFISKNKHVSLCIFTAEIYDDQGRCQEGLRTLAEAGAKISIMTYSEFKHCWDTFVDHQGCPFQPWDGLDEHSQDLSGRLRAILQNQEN
Chain of A3G-S wild type (Q9HC16 whole entry): as the sequence (Q9HC16 whole entry R313E) above, with E313R counted along it
Chain of A3G R215E (Q9HC16 whole entry R215E): as the sequence (Q9HC16 whole entry R313E) above, with R215E, E313R counted along it
Chain of A3G E259Q (Q9HC16 whole entry E259Q): as the sequence (Q9HC16 whole entry R313E) above, with E259Q, E313R counted along it
Chain of A3G R213E/R215E (Q9HC16 whole entry R213E/R215E): as the sequence (Q9HC16 whole entry R313E) above, with R213E, R215E, E313R counted along it
Chain of A3G E67Q (Q9HC16 whole entry E67Q): as the sequence (Q9HC16 whole entry R313E) above, with E67Q, E313R counted along it
Chain of A3G R374E/R376E (Q9HC16 whole entry R374E/R376E): as the sequence (Q9HC16 whole entry R313E) above, with E313R, R374E, R376E counted along it
Chain of A3G R313E/R320E (Q9HC16 whole entry R313E/R320E): as the sequence (Q9HC16 whole entry R313E) above, with R320E counted along it

B1: Alexa488 69-mer (ssDNA)
DNA: GAAGAGGAAGGGAAGAAAGAGAAAGGGAGACCCAAAGAGGAAAGGTGAGGAGGTTAATTTGTGTAAATA
binds: all assays above
